{"source": "paper PMC10499909", "origin": "cited, not measured here", "biological_target": "lactoferrin (species not stated, cited Kd) (UniProt P02788)", "sequence (P02788 20-710)": "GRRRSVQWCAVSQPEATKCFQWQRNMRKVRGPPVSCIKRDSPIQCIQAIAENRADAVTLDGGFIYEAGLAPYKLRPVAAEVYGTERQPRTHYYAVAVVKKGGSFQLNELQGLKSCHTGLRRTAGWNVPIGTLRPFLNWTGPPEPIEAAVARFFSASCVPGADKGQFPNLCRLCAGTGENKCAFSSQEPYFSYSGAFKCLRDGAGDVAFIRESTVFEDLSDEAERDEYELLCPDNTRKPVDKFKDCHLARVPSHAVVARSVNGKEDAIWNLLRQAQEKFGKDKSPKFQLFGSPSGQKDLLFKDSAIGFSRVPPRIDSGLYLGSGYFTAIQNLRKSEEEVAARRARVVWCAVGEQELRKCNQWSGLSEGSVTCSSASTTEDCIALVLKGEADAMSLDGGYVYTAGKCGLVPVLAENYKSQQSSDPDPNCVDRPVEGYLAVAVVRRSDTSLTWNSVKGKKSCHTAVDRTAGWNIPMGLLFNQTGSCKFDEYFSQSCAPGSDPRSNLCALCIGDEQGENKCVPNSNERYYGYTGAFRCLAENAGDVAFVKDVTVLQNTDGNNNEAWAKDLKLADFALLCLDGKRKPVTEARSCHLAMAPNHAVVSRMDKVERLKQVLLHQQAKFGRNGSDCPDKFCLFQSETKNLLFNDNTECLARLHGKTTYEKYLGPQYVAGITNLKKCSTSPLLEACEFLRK", "details": "PBS pH 6.8, 37 °C, 30 min in dark; CDs-aptamer 0.05 mg/mL with graphene oxide nanosheets", "note": "pKd: −log10 of the molar value.", "data": [{"sequence": "AGGCAGGACACCGTAACCGGTGCATCTATGGCTACTAGCTCTTCCTGCCT [LF aptamer]", "values": [{"measurement": "pKd", "result": 8.30}]}]}
